Positions count from the first letter of the chain named. Names and notes keep the numbering of the source.

For the test, the target named is Human CD137 ECD (human). Kind of test: SPR, vs parent H183/L072.
Human CD137 ECD (human), sequence (chain, as listed by the source limits assumed): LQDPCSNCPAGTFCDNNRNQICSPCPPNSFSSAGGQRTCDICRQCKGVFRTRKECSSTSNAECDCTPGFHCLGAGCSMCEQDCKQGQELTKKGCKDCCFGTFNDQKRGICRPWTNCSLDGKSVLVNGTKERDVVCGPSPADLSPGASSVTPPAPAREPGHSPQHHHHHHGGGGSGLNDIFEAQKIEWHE

B1: dBBDu183H H93V / dBBDu072L (antibody, name in Kabat numbering, V domains shown)
VH: QVQLVESGGGLVQPGRSLRLSCAASGFTFSNAWMHWVRQAPGKGLEWVAQIKDKGNAYAAYYAPSVKGRFTISRDDSKNSIYLQMNSLKTEDTAVYYCVYVHYASASTVLPAFGVDAWGQGTTVTVSS
VL: DIVMTQSPLSLPVTPGEPASISCQASQELVHMNRNTYLHWYQQKPGQAPRLLIYKVSNRFPGVPDRFSGSGSGTDFTLKISRVEAEDVGVYYCAQGTSVPFTFGQGTKLEIK
For the molecule B1, the fold change of affinity turned out to be 0 fold.

B2: dBBDu183H S99V / dBBDu072L (antibody, name in Kabat numbering, V domains shown)
VH: B1 VH with V99H, S105V
VL: B1 VL
With B2, the fold change of affinity turned out to be 0 fold.

B3: dBBDu183H S100aG / dBBDu072L (antibody, name in Kabat numbering, V domains shown)
VH: B1 VH with V99H, S107G
VL: B1 VL
As for B3, the fold change of affinity stood at 0 fold.

B4: dBBDu183H A98Q / dBBDu072L (antibody, name in Kabat numbering, V domains shown)
VH: B1 VH with V99H, A104Q
VL: B1 VL
Consider B4, for which the fold change of affinity was determined as 0 fold.

B5: dBBDu183H F100gG / dBBDu072L (antibody, name in Kabat numbering, V domains shown)
VH: B1 VH with V99H, F113G
VL: B1 VL
In the case of B5, the fold change of affinity was 0 fold.

B6: dBBDu183H V95G / dBBDu072L (antibody, name in Kabat numbering, V domains shown)
VH: B1 VH with V99H, V101G
VL: B1 VL
For B6, the fold change of affinity came out at 0 fold.

B7: dBBDu183H P100eV / dBBDu072L (antibody, name in Kabat numbering, V domains shown)
VH: B1 VH with V99H, P111V
VL: B1 VL
Turning to B7, the fold change of affinity was 0 fold.

B8: dBBDu183H T100bG / dBBDu072L (antibody, name in Kabat numbering, V domains shown)
VH: B1 VH with V99H, T108G
VL: B1 VL
Take B8: the fold change of affinity was found to be 0 fold.

B9: dBBDu183H V100iG / dBBDu072L (antibody, name in Kabat numbering, V domains shown)
VH: B1 VH with V99H, V115G
VL: B1 VL
On to B9, for which the fold change of affinity was found to be 0 fold.

B10: dBBDu183H L100dN / dBBDu072L (antibody, name in Kabat numbering, V domains shown)
VH: B1 VH with V99H, L110N
VL: B1 VL
Take B10: the fold change of affinity was found to be 0 fold.

B11: dBBDu183H Y97Q / dBBDu072L (antibody, name in Kabat numbering, V domains shown)
VH: B1 VH with V99H, Y103Q
VL: B1 VL
As to B11, the fold change of affinity was 0 fold.

B12: dBBDu183H A102N / dBBDu072L (antibody, name in Kabat numbering, V domains shown)
VH: B1 VH with V99H, A117N
VL: B1 VL
B12: the fold change of affinity came out at 0 fold.

B13: dBBDu183H T100bV / dBBDu072L (antibody, name in Kabat numbering, V domains shown)
VH: B1 VH with V99H, T108V
VL: B1 VL
Turning to B13, the fold change of affinity stood at 0 fold.

B14: dBBDu183H G100hV / dBBDu072L (antibody, name in Kabat numbering, V domains shown)
VH: B1 VH with V99H, G114V
VL: B1 VL
Take B14: the fold change of affinity came out at 0 fold.

B15: dBBDu183H V95Q / dBBDu072L (antibody, name in Kabat numbering, V domains shown)
VH: B1 VH with V99H, V101Q
VL: B1 VL
In the case of B15, the fold change of affinity stood at 0 fold.

B16: dBBDu183H A100V / dBBDu072L (antibody, name in Kabat numbering, V domains shown)
VH: B1 VH with V99H, A106V
VL: B1 VL
Take B16: the fold change of affinity came to 0 fold.

B17: dBBDu183H L100dG / dBBDu072L (antibody, name in Kabat numbering, V domains shown)
VH: B1 VH with V99H, L110G
VL: B1 VL
On to B17, for which the fold change of affinity worked out at 0 fold.

B18: dBBDu183H H93Q / dBBDu072L (antibody, name in Kabat numbering, V domains shown)
VH: B1 VH with V99Q
VL: B1 VL
For the molecule B18, the fold change of affinity came to 0 fold.

B19: dBBDu183H A98V / dBBDu072L (antibody, name in Kabat numbering, V domains shown)
VH: B1 VH with V99H, A104V
VL: B1 VL
Take B19: the fold change of affinity stood at 0 fold.

B20: dBBDu183H D101V / dBBDu072L (antibody, name in Kabat numbering, V domains shown)
VH: B1 VH with V99H, D116V
VL: B1 VL
As for B20, the fold change of affinity was found to be 0 fold.

B21: dBBDu183H Y97N / dBBDu072L (antibody, name in Kabat numbering, V domains shown)
VH: B1 VH with V99H, Y103N
VL: B1 VL
B21: the fold change of affinity worked out at 0 fold.

B22: dBBDu183H V100iN / dBBDu072L (antibody, name in Kabat numbering, V domains shown)
VH: B1 VH with V99H, V115N
VL: B1 VL
With B22, the fold change of affinity came out at 0 fold.

B23: dBBDu183H H93G / dBBDu072L (antibody, name in Kabat numbering, V domains shown)
VH: B1 VH with V99G
VL: B1 VL
Regarding B23, the fold change of affinity was 0 fold.

B24: dBBDu183H S100aV / dBBDu072L (antibody, name in Kabat numbering, V domains shown)
VH: B1 VH with V99H, S107V
VL: B1 VL
B24: the fold change of affinity is 0 fold.

B25: dBBDu183H Y97V / dBBDu072L (antibody, name in Kabat numbering, V domains shown)
VH: B1 VH with V99H, Y103V
VL: B1 VL
Consider B25, for which the fold change of affinity was determined as 0 fold.

B26: dBBDu183H A98N / dBBDu072L (antibody, name in Kabat numbering, V domains shown)
VH: B1 VH with V99H, A104N
VL: B1 VL
On to B26, for which the fold change of affinity stood at 0 fold.

B27: dBBDu183H Y94V / dBBDu072L (antibody, name in Kabat numbering, V domains shown)
VH: B1 VH with V99H, Y100V
VL: B1 VL
For the molecule B27, the fold change of affinity was determined as 0 fold.

B28: dBBDu183H Y94G / dBBDu072L (antibody, name in Kabat numbering, V domains shown)
VH: B1 VH with V99H, Y100G
VL: B1 VL
As for B28, the fold change of affinity turned out to be 0 fold.

B29: dBBDu183H A102V / dBBDu072L (antibody, name in Kabat numbering, V domains shown)
VH: B1 VH with V99H, A117V
VL: B1 VL
B29: the fold change of affinity is 0 fold.

B30: dBBDu183H A100fN / dBBDu072L (antibody, name in Kabat numbering, V domains shown)
VH: B1 VH with V99H, A112N
VL: B1 VL
In the case of B30, the fold change of affinity came out at 0 fold.

B31: dBBDu183H A100fV / dBBDu072L (antibody, name in Kabat numbering, V domains shown)
VH: B1 VH with V99H, A112V
VL: B1 VL
Regarding B31, the fold change of affinity was 0 fold.

B32: dBBDu183H F100gN / dBBDu072L (antibody, name in Kabat numbering, V domains shown)
VH: B1 VH with V99H, F113N
VL: B1 VL
With B32, the fold change of affinity was determined as 0 fold.

B33: dBBDu183H V100cN / dBBDu072L (antibody, name in Kabat numbering, V domains shown)
VH: B1 VH with V99H, V109N
VL: B1 VL
Take B33: the fold change of affinity turned out to be 0 fold.

B34: dBBDu183H G100hN / dBBDu072L (antibody, name in Kabat numbering, V domains shown)
VH: B1 VH with V99H, G114N
VL: B1 VL
B34: the fold change of affinity is 0 fold.

B35: dBBDu183H H96Q / dBBDu072L (antibody, name in Kabat numbering, V domains shown)
VH: B1 VH with V99H, H102Q
VL: B1 VL
In the case of B35, the fold change of affinity was 0 fold.

B36: dBBDu183H Y97G / dBBDu072L (antibody, name in Kabat numbering, V domains shown)
VH: B1 VH with V99H, Y103G
VL: B1 VL
Regarding B36, the fold change of affinity stood at 0 fold.

B37: dBBDu183H S99N / dBBDu072L (antibody, name in Kabat numbering, V domains shown)
VH: B1 VH with V99H, S105N
VL: B1 VL
Take B37: the fold change of affinity was found to be 0 fold.

B38: dBBDu183H A98G / dBBDu072L (antibody, name in Kabat numbering, V domains shown)
VH: B1 VH with V99H, A104G
VL: B1 VL
As for B38, the fold change of affinity was 0 fold.

B39: dBBDu183H S100aN / dBBDu072L (antibody, name in Kabat numbering, V domains shown)
VH: B1 VH with V99H, S107N
VL: B1 VL
For the molecule B39, the fold change of affinity was 0 fold.

B40: dBBDu183H H96G / dBBDu072L (antibody, name in Kabat numbering, V domains shown)
VH: B1 VH with V99H, H102G
VL: B1 VL
With B40, the fold change of affinity stood at 0 fold.

B41: dBBDu183H V95N / dBBDu072L (antibody, name in Kabat numbering, V domains shown)
VH: B1 VH with V99H, V101N
VL: B1 VL
In the case of B41, the fold change of affinity stood at 0 fold.

B42: dBBDu183H V100cG / dBBDu072L (antibody, name in Kabat numbering, V domains shown)
VH: B1 VH with V99H, V109G
VL: B1 VL
B42: the fold change of affinity stood at 0 fold.

B43: dBBDu183H H96N / dBBDu072L (antibody, name in Kabat numbering, V domains shown)
VH: B1 VH with V99H, H102N
VL: B1 VL
In the case of B43, the fold change of affinity was found to be 0 fold.

B44: dBBDu183H D101G / dBBDu072L (antibody, name in Kabat numbering, V domains shown)
VH: B1 VH with V99H, D116G
VL: B1 VL
Turning to B44, the fold change of affinity is 0 fold.

The values are drawn from patent publication US20210388087A1.
